Reference: PMC11532998
Where “and” joins values, the source holds several entries; their conditions need not be identical. Identical values can stand only once.

Assays:
[1] = molecular target: T1, encapsulin from Mycobacterium smegmatis (UniProt ID: I7G8Y9), C-terminal Strep-tag (Mycobacterium smegmatis mc2 155); assay: cryo-EM structure; same data set of purified Enc{tdNfsB}; the shell was subtracted from the particles, 2-D classification and low-resolution 3-D reconstruction of the interior; cargo and shell co-expressed in E. coli
[2] = molecular target: T1, encapsulin from Mycobacterium smegmatis; assay: SDS-PAGE gel densitometry of the co-purified complex; Enc{tdNfsB} at 500 ug/mL on a 15% gel, Coomassie; calibration curves of Enc and tdNfsB; molar ratio of tdNfsB (52.3 kDa) to Enc shell (1804.2 kDa); repeated twice
[3] = molecular target: NfsB with C-terminal encapsulin localization sequence (cargo of Enc{NfsB}) (E. coli | M. smegmatis)

Substance | stoichiometry N (tdNfsB per capsid) [1] | stoichiometry N (tdNfsB units per shell) [2] | conversion of caged-hydroxy-CBT after 60 min by Enc{NfsB} (coupled luciferase assay), against 50% for free NfsB and tdNfsB and a comparable conversion for Enc{tdNfsB} [3] [%]
tandem NfsB with C-terminal encapsulin localization sequence (cargo of Enc{tdNfsB}) (enzyme) | 6 | 10 and 13 | –
NfsB with C-terminal encapsulin localization sequence (cargo of Enc{NfsB}) (enzyme) | – | – | 10
